Patent US20210130436A1 (published 2021)

T1: CD96 (UniProt P40200 22-585, limits assumed)
T1 construct: whole, on cells
T1 sequence (looked up): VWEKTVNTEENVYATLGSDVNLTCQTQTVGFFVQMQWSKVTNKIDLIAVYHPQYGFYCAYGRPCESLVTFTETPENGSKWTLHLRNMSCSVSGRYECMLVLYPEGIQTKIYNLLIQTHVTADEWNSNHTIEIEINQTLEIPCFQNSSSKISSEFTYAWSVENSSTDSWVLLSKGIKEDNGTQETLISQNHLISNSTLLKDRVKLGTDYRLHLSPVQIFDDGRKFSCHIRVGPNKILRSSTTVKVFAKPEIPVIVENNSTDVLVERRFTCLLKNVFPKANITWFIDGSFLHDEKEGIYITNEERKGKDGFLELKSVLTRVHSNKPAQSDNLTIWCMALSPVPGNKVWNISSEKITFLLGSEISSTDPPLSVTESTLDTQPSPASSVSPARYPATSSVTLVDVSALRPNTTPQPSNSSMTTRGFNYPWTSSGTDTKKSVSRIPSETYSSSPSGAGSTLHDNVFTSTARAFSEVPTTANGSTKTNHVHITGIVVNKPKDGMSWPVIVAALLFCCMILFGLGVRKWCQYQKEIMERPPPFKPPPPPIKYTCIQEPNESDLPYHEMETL

T2: TIGIT (UniProt Q495A1 22-244)
T2 construct: whole, on cells
T2 sequence (looked up): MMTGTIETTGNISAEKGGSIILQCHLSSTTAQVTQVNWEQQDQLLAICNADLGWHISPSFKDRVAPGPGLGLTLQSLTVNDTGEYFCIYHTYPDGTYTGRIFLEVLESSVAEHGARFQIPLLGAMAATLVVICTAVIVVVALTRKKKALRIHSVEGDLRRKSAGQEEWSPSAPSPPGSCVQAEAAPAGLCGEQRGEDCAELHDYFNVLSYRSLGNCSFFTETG

T3: CD226 (UniProt Q15762 19-336)
T3 construct: whole, on cells
T3 sequence (looked up): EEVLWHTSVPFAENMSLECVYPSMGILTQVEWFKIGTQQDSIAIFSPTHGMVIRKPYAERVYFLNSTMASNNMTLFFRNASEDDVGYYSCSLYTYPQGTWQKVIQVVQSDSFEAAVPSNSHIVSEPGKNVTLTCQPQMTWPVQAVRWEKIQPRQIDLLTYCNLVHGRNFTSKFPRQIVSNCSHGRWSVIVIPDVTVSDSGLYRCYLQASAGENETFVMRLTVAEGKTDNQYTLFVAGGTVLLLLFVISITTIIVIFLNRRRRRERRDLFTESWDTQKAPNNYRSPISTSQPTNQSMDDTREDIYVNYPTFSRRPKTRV


What was measured:
[1] = biological target: T1, CD96; test: flow cytometry on cells expressing CD96, Fc fusion at 100 nM
[2] = biological target: T2, TIGIT; test: flow cytometry on cells expressing TIGIT, Fc fusion at 100 nM
[3] = biological target: T3, CD226; test: flow cytometry on cells expressing CD226, Fc fusion at 100 nM

Row | Binder | MFI at 100 nM [1] | MFI at 100 nM [2] | MFI at 100 nM [3]
1 | CD155 S42A variant IgV-Fc fusion (Fc fusion, not shown: a dimerising Fc or GST) WPPPGTGDVVVQAPTQVPGFLGDSVTLPCYLQVPNMEVTHVAQLTWARHGESGSMAVFHQTQGPSYSESKRLEFVAARLGAELRNASLRMFGLRVEDEGNYTCLFVTFPQGSRSVDIWLRVL | 1620 MFI | 1930 MFI | 2190 MFI
2 | CD155 S42G/S52L/Q62F/L104Q variant IgV-Fc fusion (Fc fusion, not shown: a dimerising Fc or GST) WPPPGTGDVVVQAPTQVPGFLGDSVTLPCYLQVPNMEVTHVGQLTWARHGELGSMAVFHQTFGPSYSESKRLEFVAARLGAELRNASLRMFGLRVEDEGNYTCQFVTFPQGSRSVDIWLRVL | 1640 MFI | 1920 MFI | 2160 MFI
3 | CD155 S42G/S52Q/L104E/G111R variant IgV-Fc fusion (Fc fusion, not shown: a dimerising Fc or GST) WPPPGTGDVVVQAPTQVPGFLGDSVTLPCYLQVPNMEVTHVGQLTWARHGEQGSMAVFHQTQGPSYSESKRLEFVAARLGAELRNASLRMFGLRVEDEGNYTCEFVTFPQRSRSVDIWLRVL | – | 2010 MFI | 2020 MFI
4 | CD155 S42C/S52M/Q62F variant IgV-Fc fusion (Fc fusion, not shown: a dimerising Fc or GST) WPPPGTGDVVVQAPTQVPGFLGDSVTLPCYLQVPNMEVTHVCQLTWARHGEMGSMAVFHQTFGPSYSESKRLEFVAARLGAELRNASLRMFGLRVEDEGNYTCLFVTFPQGSRSVDIWLRVL | 1480 MFI | 1860 MFI | 2080 MFI

Continued, values first:

Row | MFI at 100 nM [1] | MFI at 100 nM [2] | MFI at 100 nM [3] | Binder
5 | 1620 MFI | 1930 MFI | 2190 MFI | CD155 S42L variant IgV-Fc fusion (Fc fusion, not shown: a dimerising Fc or GST) WPPPGTGDVVVQAPTQVPGFLGDSVTLPCYLQVPNMEVTHVLQLTWARHGESGSMAVFHQTQGPSYSESKRLEFVAARLGAELRNASLRMFGLRVEDEGNYTCLFVTFPQGSRSVDIWLRVL
6 | 1540 MFI | 1780 MFI | 1740 MFI | CD155 S42N/S52E/V57L/L104E variant IgV-Fc fusion (Fc fusion, not shown: a dimerising Fc or GST) WPPPGTGDVVVQAPTQVPGFLGDSVTLPCYLQVPNMEVTHVNQLTWARHGEEGSMALFHQTQGPSYSESKRLEFVAARLGAELRNASLRMFGLRVEDEGNYTCEFVTFPQGSRSVDIWLRVL
7 | 2530 MFI | 2060 MFI | 2270 MFI | CD155 S42V/S52E variant IgV-Fc fusion (Fc fusion, not shown: a dimerising Fc or GST) WPPPGTGDVVVQAPTQVPGFLGDSVTLPCYLQVPNMEVTHVVQLTWARHGEEGSMAVFHQTQGPSYSESKRLEFVAARLGAELRNASLRMFGLRVEDEGNYTCLFVTFPQGSRSVDIWLRVL
8 | 1690 MFI | 1820 MFI | 1910 MFI | CD155 S42N variant IgV-Fc fusion (Fc fusion, not shown: a dimerising Fc or GST) WPPPGTGDVVVQAPTQVPGFLGDSVTLPCYLQVPNMEVTHVNQLTWARHGESGSMAVFHQTQGPSYSESKRLEFVAARLGAELRNASLRMFGLRVEDEGNYTCLFVTFPQGSRSVDIWLRVL
